By EC50 is commonly meant the concentration at which the effect is half-maximal.

We go through one molecule from patent US20220056140A1 (INVECTYS, published 2022).

Assay [1] has as its target T1, HLA-G5 recombinant protein (without β2M association) (human, UniProt P17693-5 25-319).
T1 construct: domain: α1α2α3 domains of HLA-G5; No β2M; Coupled to Bioplex beads; also called hβ2M-free HLA-G5; recombinant HLA-G5 protein
Kind of assay: flow cytometry titration on β2M-free HLA-G5 coated Bioplex beads. In general terms: Flow cytometry measures light scatter and fluorescence of single cells or particles in a stream.
Experimental: (§1) The binding detection was carried out by flow cytometry using a PE-conjugated goat anti-mouse antibody. […] Measurements were performed in triplicate (n=3); error bars indicate SD.
(§2) Flow cytometry analyses were performed using LSR FORTESSA (Beckton Dickinson, Le Pont-de-Claix, France); data were analyzed with FlowJo X software (Tree star, Ashland, USA).

The target of assay [2] is HLA-G6 recombinant protein (without β2M association) (human, UniProt P17693 25-227). Kind of assay: flow cytometry titration on HLA-G6 coated Bioplex beads.
Experimental: as §1, §2
The next assay addresses T2, Control peptide.
T2 peptide: CTHHPVADAEATLRC
The assay can be described thus: flow cytometry on Bioplex beads coated with the mutated peptide, PE-conjugated goat anti-mouse antibody.

Experimental for Control peptide: as §1
As specificity (negative) controls, uncoupled beads or beads coated with a mutated peptide [sequence]

B1: anti-HLA-G monoclonal antibody 15E7 (antibody, V domains shown)
VH: QVQLQQPGAELVRPGSSVKLSCKASGYTFTDYWMDWVKQRPGQGLEWIGTIYPSDSSTHYNQEFKGKATMTVDKSSSTAYMHLSSLTSEDSAVYYCAREGLAGVFYFDYWGQGTTLTVSS
VL: DVLMTQIPFSLPVSLGDQASISCRSSQSIVHRSGNTYLEWYLQKPGQSPKLLIYKVSNRFSGVPDRFSGSGSGTDFTLKISRVEAEDLGVYYCFQGSHLPPTFGGTTLEIK
notes: also called 15E7 mAb; 15E7 Mab
In the case of B1, the EC50 in assay [1] is 0.028 µg/mL; in assay [2], 0.12 µg/mL. The binding result with Control peptide was “no binding (tested: 250 ng/ml)”.
